Measured values: patent publication US20070202098A1

Columns and labels:
[1] = target: extracellular region of human V158 FcγRIIIa fused with glutathione S-Transferase (GST) (human) (UniProt P08637); experiment: AlphaScreen competition
[2] = target: His-tagged V158 FcγRIIIa (human) (UniProt P08637); experiment: SPR, receptor immobilized, antibody flowed
[3] = target: FcγRIIIa on human PBMC effector cells (heterozygous V158/F158 or allotype not stated) (human) (UniProt P08637); experiment: cell-based or functional assay
[4] = target: extracellular region of human F158 FcγRIIIa, GST-tagged (human) (UniProt P08637); experiment: AlphaScreen competition
[5] = target: His-tagged V158 FcγRIIIa (human) (UniProt P08637); experiment: SPR
[6] = target: extracellular region of human F158 FcγRIIIa, GST-tagged (human) (UniProt P08637); experiment: SPR

Chain of extracellular region of human F158 FcγRIIIa, GST-tagged (human) (P08637 17-208): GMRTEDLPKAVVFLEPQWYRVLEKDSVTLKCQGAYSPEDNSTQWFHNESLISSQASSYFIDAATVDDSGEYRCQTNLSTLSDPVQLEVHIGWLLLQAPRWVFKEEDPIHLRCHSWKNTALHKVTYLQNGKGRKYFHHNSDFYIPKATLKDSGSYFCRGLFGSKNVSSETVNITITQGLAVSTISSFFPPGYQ
Chain of His-tagged V158 FcγRIIIa (human) (P08637 17-208 F176V): as the sequence (P08637 17-208) above, with F160V counted along it
Chain of extracellular region of human V158 FcγRIIIa fused with glutathione S-Transferase (GST) (human) (P08637 17-208 F176V): as the sequence (P08637 17-208) above, with F160V counted along it
Chain of FcγRIIIa on human PBMC effector cells (heterozygous V158/F158 or allotype not stated) (human) (P08637 17-254): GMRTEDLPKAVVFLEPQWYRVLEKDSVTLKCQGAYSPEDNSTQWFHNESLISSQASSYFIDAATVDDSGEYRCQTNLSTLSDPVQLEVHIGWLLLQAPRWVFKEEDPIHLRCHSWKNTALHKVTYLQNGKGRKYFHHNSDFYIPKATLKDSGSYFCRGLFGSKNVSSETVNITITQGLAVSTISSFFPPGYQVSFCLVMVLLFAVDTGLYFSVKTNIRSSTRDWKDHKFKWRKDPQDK

Substance | FcγRIIIa Fold [1] [fold] | further results
trastuzumab Fc variant 240 K274T (antibody) | 1.41 | 
trastuzumab Fc variant 255 E283R (antibody) | 0.67 | 
trastuzumab Fc variant 257 E318R (antibody) | 1.06 | 
trastuzumab Fc variant 294 S239D/A330Y/I332E/L235D (antibody) | 7.04 | 
trastuzumab Fc variant 222 E233D (antibody) | 0.85 | 
trastuzumab Fc variant 245 F275W (antibody) | 1.11 | 
alemtuzumab Fc variant 35 S298A (antibody) |  | Kd [2]: 52 nM
trastuzumab Fc variant 292 V240I/V266I (antibody) | 1.72 | 
alemtuzumab Fc variant 37 S298A/E333A/K334A (antibody) |  | Kd [2]: 39 nM
trastuzumab Fc variant 290 T335Y (antibody) | 1.56 | 
trastuzumab Fc variant 246 N276S (antibody) | 0.41 | 
alemtuzumab Fc variant 3 V264I (antibody) |  | Kd [2]: 64 nM
trastuzumab Fc variant 291 L234I/L235D (antibody) | 0.07 | 
trastuzumab Fc variant 272 K326I (antibody) | 1.43 | 
trastuzumab Fc variant 248 N276R (antibody) | 0.66 | 
trastuzumab Fc variant 247 N276E (antibody) | 0.87 | 
trastuzumab Fc variant 273 K326T (antibody) | 1.88 | 
trastuzumab Fc variant 252 Y278E (antibody) | 0.9 | 
trastuzumab Fc variant 263 V323I (antibody) | 0.83 | 
trastuzumab Fc variant 239 V273I (antibody) | 0.79 | 
trastuzumab Fc variant 250 N276Y (antibody) | 0.56 | 
trastuzumab Fc variant 219 S239D/I332E/A330I (antibody) | 59.1 | 
trastuzumab Fc variant 270 S324Y (antibody) | 0.98 | 
trastuzumab Fc variant 243 K274L (antibody) | 1.09 | 

Substance | FcγRIIIa Fold [1] [fold] | further results
trastuzumab Fc variant 242 K274R (antibody) | 1.41 | 
alemtuzumab Fc variant 90 S239D/I332E (antibody) | 56.1 | ADCC EC50, DoHH-2 targets, human PBMCs [3]: 3 ng/mL; ADCC Fold Improvement Over WT [3]: 3.3 fold; ADCC log(EC50), DoHH-2 targets, human PBMCs [3]: 0.49 log(ng/ml)
alemtuzumab Fc variant 22 I332E (antibody) |  | Kd [2]: 31 nM
trastuzumab Fc variant 266 S324R (antibody) | 0.71 | 
trastuzumab Fc variant 281 E333T (antibody) | 0.78 | 
trastuzumab Fc variant 296 S239D/A330Y/I332E/V264T (antibody) | 17.7 | 
trastuzumab Fc variant 244 K274Y (antibody) | 1.06 | 
trastuzumab Fc variant 251 Y278T (antibody) | 1.87 | 
trastuzumab Fc variant 241 K274E (antibody) | 6.11 | 
trastuzumab Fc variant 282 E333H (antibody) | 0.75 | 
trastuzumab Fc variant 254 Y278W (antibody) | 0.41 | 
trastuzumab Fc variant 288 T335D (antibody) | 2.79 | 
trastuzumab Fc variant 267 S324I (antibody) | 1.15 | 
trastuzumab Fc variant 256 V302I (antibody) | 1.01 | 
trastuzumab Fc variant 223 P230A/E233D (antibody) | 0.92 | 
trastuzumab Fc variant 295 S239D/A330Y/I332E/V240I (antibody) | 28 | 
trastuzumab Fc variant 268 S324V (antibody) | 1.17 | 
trastuzumab Fc variant 238 E272Y (antibody) | 8.7 | 
trastuzumab Fc variant 289 T335R (antibody) | 2.58 | 
trastuzumab Fc variant 221 P230A (antibody) | 1.09 | 
trastuzumab Fc variant 224 P230A/E233D/I332E (antibody) | 1.87 | 
alemtuzumab Fc variant 30 V264I/I332E (antibody) | 12.5 | Fold (IC50, over WT) [4]: 15.6 fold; IC50 [4]: 1.1 nM; Fold (IC50, over WT) [1]: 12.8 fold; IC50 [1]: 0.5 nM; Kd [2]: 17 nM; Fold (Kd, over WT) [5]: 4 fold; Fold (Kd, over WT) [6]: 14 fold; Kd [6]: 52 nM; ADCC EC50, DoHH-2 targets, human PBMCs [3]: 4 ng/mL; ADCC Fold Improvement Over WT [3]: 2.5 fold; ADCC log(EC50), DoHH-2 targets, human PBMCs [3]: 0.6 log(ng/ml)
trastuzumab Fc variant 298 S239D/A330Y/I332E/K326E (antibody) | 64.1 | 
trastuzumab Fc variant 293 S239D/A330Y/I332E/L234I (antibody) | 22.4 | 
